Test results: patent US6890716B1, “Recombinant cell line and screening method for identifying agents which regulate apoptosis and tumor suppression” (Howard Hughes Medical Institute, priority 1998, dated 2005)

What was measured:
[1] = target: temperature sensitive p53 (val135) mutant expressed in p53A cells (UniProt P02340); assay: cell-based or functional assay
[2] = tested on: p53A cells; assay: Apoptotic morphology of transfected cells by indirect immunofluorescence at the permissive temperature; type: cell-based, rat; conditions: 24 μg plasmid DNA, permissive temperature (FIG. 9)
Method: Apoptotic morphology was assessed by scoring for cells that are positive by fluorescence microscopy and are rounded and non adherent.
In addition, we determined the percentage of cells with apoptotic morphology that were ectopically expressing wild-type p300 ectopically or the E1A-binding mutant of p300 following transient transfection with 24 μg of plasmid DNA. Apoptotic morphology was determined by counting cells that were rounded in shape and detaching from the dish. The percentage of cells with apoptotic morphology transiently expressing a control protein, a fragment of the lamin A protein (Rao et al. 1996), compared to p300 and mutant p300 transfected p53A cells at the permissive temperature was determined by indirect immunofluorescence.

[3] = tested on: mdm2 in p53A cells; assay: Up-regulation of endogenous Mdm2 by indirect immunofluorescence; type: cell-based, rat; conditions: indirect immunofluorescence (FIG. 7)
Method: Cells were fixed in cold methanol prior to incubation with primary antibodies. Subsequent to several washes in PBS, cells were incubated with rhodamine-conjugated goat anti-mouse antibody or fluorescein-conjugated goat anti-rabbit antibody. Cells were then washed, mounted and analyzed by fluorescence microscopy using a Nikon FXA epifluorescence microscope.
The indicated amount of plasmid DNA was transfected by electroporation. After transfection, cells were incubated at 37.5° C. for 24 hours to recover, and were then shifted to 32° C. for 24 hours before analysis for viability by trypan blue staining and apoptotic morphology. […]
We next attempted to rescue p53A cells from apoptosis at the permissive temperature by ectopically expressing p300. Vector alone, wild-type p300 and a functional but truncated form of p300 with a deletion of E1A binding domain (Arany et al. 1994), were transiently transfected in p53A cells. p53-dependent apoptosis was examined at the permissive temperature 48 hours post-transfection. p53A cells transiently expressed the exogenous wild-type p300 and the E1A binding mutant form of p300, neither of which were detected in mock transfected cells. The up-regulation of mdm2 in p300 transfected cells was not detected by Western blot analysis above endogenous levels (FIG. 6) because the transfection efficiency was low in transient assays. […]

[4] = tested on: GAL-4 luciferase reporter construct in HeLa cells; assay: Transcriptional reporter assay (GAL-4 luciferase reporter); type: cell-based
Method: Transcriptional reporter assays were performed as described previously (Catron, et al., 1995). HeLa cells were plated onto 60 mm tissue culture dishes and grown to 50-75% confluency. The cells were then transfected with 2.5 μg of a GAL-4 luciferase reporter construct (kindly provided by Dr. C. Abate-Shen, Center for Advanced Biotechnology and Medicine, Piscataway, N.J.) along with 2.5 μg of both a pm1 vector (BtfS, BtfS-N552 or BtfS-C210) and a bcl-2 family gene (pCMV-E1B 19K, pcDNA3-Bcl-2, or pcDNA3-Flag-Bcl-xL). DNA concentrations were kept constant using appropriate empty vectors, either pm1 or pcDNA3. The cells were transfected using SuperFect (Qiagen, Valencia, Calif.) according to the manufacturer's specifications and harvested 24 hours post-transfection. Expression of mutant and wild-type BtfS proteins were verified by immunofluorescence using an antibody against the GAL-4 DNA-binding domain (Clontech, San Fransisco, Calif.). Luciferase activity was determined using the Luciferase Assay System (Promega Corp., Madison, Wis.) measured in a scintillation counter, and then normalized for protein concentrations measured by a Bradford assay. […]
To address these issues, BtfS was cloned into a mammalian expression vector (pm1) containing the GAL-4 DNA binding domain. Transcriptional activity was monitored using a reporter construct containing GAL-4 promoter sites. […]

percentage of apoptotic cells (morphology, indirect immunofluorescence) among p53A cells expressing the protein [1] | Molecule | percentage of expressing cells with apoptotic morphology [2] | transfected cells showing up-regulation of Mdm2 [3] | also measured
30% | mutant mdm2 with deletion of the N-terminal p53-binding domain (pCOC-ΔXM / pCMVβ-ΔXM) (from UniProt P23804 102-489) |  |  | 
 | mutant p300: Functional but truncated p300 with deletion of the E1A binding domain (pCMVβp300Δ30) | 8% | 90% | 
10% | wild-type mdm2 (pCOC-X2 / pCMVβ-X2) (from UniProt P23804 1-489) |  |  | 
 | wild-type p300: Transcriptional coactivator p300, HA-tagged, expressed from pCMVβp300 | 4% | 90% | 
 | pm1-BtfS: BtfS fused to the GAL-4 DNA binding domain in mammalian expression vector pm1 (protein) MKLLSSIEQACDICRLKKLKCSKEKPKCAKCLKNNWECRYSPKTKRSPLTRAHLTEVESRLERLEQLFLLIFPREDLDMILKMDSLQDIKALLTGLFVQDNVNKDAVTDRLASVETDMPLTLRQHRISATSSSEESSNKGQRQLTVSMGRANSRSHSSRSKSRSQSSSRSRSRSHSRKKRYRSRSRTYSRSRSRDRMYSRDYRRDYRNNRGMRRPYGYRGRGRGYYQGGGGRYHRGGYRPVWNRRHSRSPRRGRSRSRSPKRRSVSSRSRSRSRRSYRSSRSPRSSSSRSSSPYSKSPVSKRRGSQEKQTKKAEGEPQEESPLKSKSQEEPKDTFEHDPSESIDEFNKSSATSGDIWPGLSAYDNSPRSPHSPSPIATPPSQSSSCSDAPMLSTVHSAKNTPSQHSHSIQHSPERSGSGSVGNGSSRYSPSQNSPIHHIPSRRSPAKTIAPQNAPRDESRGRSSFYPDGGDQETAKTGKFLKRFTDEESRVFLLDRGNTRDKEASKEKGSEKGRAEGEWEDQEALDYFSDKESGKQKFNDSEGDDTEETEDYRQFRKSVLADQGKSFATASHRNTEEEGLKYKSKVSLKGNRESDGFREEKNYKLKETGYVVERPSTTKDKHKEEDKNSERITVKKETQSPEQVKSEKLKDLFDYSPPLHKNLDAREKSTFREESPLRIKMIASDSHRPEVKLKMAPVPLDDSNRPASLTKDRLLASTLVHSVKKEQEFRSIFDHIKLPQASKSTSESFIQHIVSLVHHVKEQYFKSAAMTLNERFTSYQKATEEHSTRQKSPEIHRRIDISPSTLRKHTRLAGEERVFKEENQKGDKKLRCDSADLRHDIDRRRKERSKERGDSKGSRESSGSRKQEKTPKDYKEYKSYKDDSKHKREQDHSRSSSSSASPSSPSSREEKESKKEREEEFKTHHEMKEYSGFAGVSRPRGTFFRIRGRGRARGVFAGTNTGPNNSNTTFQKRPKEEEWDPEYTPKSKKYFLHDDRDDGVDYWAKRGRGRGTFQRGRGRFNFKKSGSSPKWTHDKYQGDGIVEDEEETMENNEEKKDRRKEEKE |  |  | decrease in transcription compared to empty pm1 vector control ([4]; 24 hours post-transfection (FIG. 27)): ~10 fold
 | ΔC210: Deletion mutant of BtfS, amino acids 1-210, cloned into pm1 (protein, UniProt Q9NYF8 1-210, looked up, fragment, BtfS isoform, Deletion mutant of BtfS, amino acids 1-210, cloned into pm1) MGRSNSRSHSSRSKSRSQSSSRSRSRSHSRKKRYSSRSRSRTYSRSRSRDRMYSRDYRRDYRNNRGMRRPYGYRGRGRGYYQGGGGRYHRGGYRPVWNRRHSRSPRRGRSRSRSPKRRSVSSQRSRSRSRRSYRSSRSPRSSSSRSSSPYSKSPVSKRRGSQEKQTKKAEGEPQEESPLKSKSQEEPKDTFEHDPSESIDEFNKSSATSG |  |  | ability to repress transcription (in words) ([4]; pm1 GAL-4 DNA-binding domain fusions (FIG. 27)): sufficient for repression and nearly as potent as full-length BtfS
